Results taken from US20090311265A1.

Biological target: HA of BPL-inactivated virus preparation of strain A/New Caledonia/20/99 (H1N1) (influenza A virus A/New Caledonia/20/99 (H1N1))
Assay: ELISA, coated inactivated virus, IgG 5 µg/ml

## CR3014 (antibody)
  OD 492 nm: 0.09 OD 492 nm

## CR6261 (antibody)
  OD 492 nm: 1.46 OD 492 nm
